The nature of the data set: label from the status in PepcDB records.
With “TTLQVREQTARRTLAALGYNECVTYSFIDEAAARLFGGGSEAVRVENPISSEMTHLRPDLLPGLLRAAARNQARGFADIALCEIGPVFAGGEPGEQQLQATGLLVGAVAPRDPFGSRRPVDVYDAKADAEAVLAAVGAPARMQISRKVPGWWHPGRSGIVGLGPNVLATFGEVHPRILREMDVKGPAVAFTVLVANVPLPKVKTPTRPALKL”, the protein production result was “failed”.
On to “MKLSVCTITFRHHLLCFSEIVEWTQRNGFDGVELWGAHARGLMRTHPEYDADWLRSYGLSVPMLSDYLPTDGDITDTRHRAIELCRIAQHWSARKIRTFAGNRPSAQLSREQRRALAGRIGEIAGIVHDHGIRLLVETHPNTLADNVDSTLGLLADANHPGLGINFDALHVWEGGDDPVLARRTLADFIGHYHLKNVRSRDELGVFAPENVYSAAGSRDGMVPLFDGAMDYEGFLASLADETDAEASLEWFGHDCFETLARDRLAIFARSISTRGRRGSAGTQQARLAESRAAGRAASSKGPSCI”, for which the protein production result is on record as “failed”.
The entry for “MRFDKSCQARAPSAPDGPGVLRFTIFRGEAKKRKAAVSVAGRFCAVACFLRLGSAGLSRCPCYFSPMLERRIVVAVPARDEGAGVVATLRALAAQEGAPPFQTLLLVNNSRDDTAAQARAFARQMPGFRLQVEEVALPPREANVVGARRAALDWAAALAGSDGIIVSTDADTQAAPDWLAALVQPLCANRAVQASAGRILLRATERAALPEPVRRTYLLDTGYRDAASRLRARVLPDPFDPAPRHWQHFGASLALRVSAYRAVGGVPQVPCLEDLALVRALARADLPLRHTPRARVYTSARLCGRVPVGLSTQLGEWARGPQHWRVPGGAEVLRLAQAEAALRRSWQARRLAPKLTAQWLTSEAALGAALHAPRWGLALERAHEVREAEGRWQRTFAPIPVWDALQEVRALLSTLPEERPLTAEVCAP” is “failed”.
The entry for “MYRNDPILPTFALILAAGLFYAAYLDGRHIARLLGHVPEELSVGQIGLMAFGAVLLLYGLMGLVSYWLEGIELRPGRHFPTPSTAPVAAGVILVLLLTALSGFFVRLLVYSAQTGHNPTWLQGLIFGSISLVVAALFGIYRRFFGREEVITEEEKSEFPW” is “failed”; for “MATEKYHEILKKYFLSFETGDFSQVQFSCNLEFLSPISGNTLKGTEEVIPFLKGVTTRVAEVNIMSTTVEYPRASGVWQMRTTKGTLYTLHNFFRLDEEGIVYVWPMFDPKAVMENPDALIQWLTGKDY” it is “not failed”; for “MSTKTGNYISIAIFAFFGGIARAWLNSSFGFYGTFWGNIIGCFLLAFFTYLFMEFKDVRQWLTVGLGTGFVGAFTTFSTFNLDVLKNIQANVPITALIYFLSSIIFGFCFAYLGMNAGKQVGNLLRKED” it is “failed”.
Consider “MDEVLLVKKLVEDAIVPTRGSKCAAGIDLYSNTNFIIQPHERFLVSTGVSVQIPHQCYGRIAPRSSLALKYGIDVGAGVIDEDYRGEIKVILFNHSNEIFNGRKGDRIAQLIIERISYCRISEVKELNTTDRGTNGFGSTGK”, for which the protein production entry was “not failed”.
Turning to “MDSMKLYDAIIGTVEKHIAPIAAKVGNQPHVRAMRDGFIVAMPFIIVGSFILIFAFPPFAEDTTFTFGRLWLDFATTHFDTIMMPFNMSMGIMTIFVSLGVAYSLAKAYKMDGITSAVLSLMCFLLVAAPAQDGSLAMKHMGGTGIFTAVMCAFFAVELYRFMKKHNITIRMPEQVPPAIARSFEVLLPVLAVFVTLYPLSIFVQTQYDMLIPDAVMAMFKPLISASNTLPAIIGALLMCQLLWFAGIHGAAIVVGLLSPIFLTNISGNIDAFVAGQPVPNIFTQPFWDFYIFIGGSGATLALVLLMSFSRSVHLKSIGRMSAVPGFFQINEPVIFGSPIVMNPTLFIPFVFAPVINATIAYFAVHLGFVGMGVATTPWTTPAIIGASWGSGWTFSPVLLVVGLLILDLLIYFPFFKMFEKQMLEQELPTTKETKQAEQPAGEGVTA”, the protein production result is reported as “failed”.
For the sequence “MNAAVVRRTQEALGKVIRRPPLTEKLLSKPPFRYLHDIITEVIRMTGFMKGLYTDAEMKSDNVKDKDAKISFLQKAIDVVVMVSGEPLLAKPARIVAGHEPERTNELLQIIGKCCLNKLSSDDAVRRVLAGEK”, the protein production result is “not failed”.
Take “GDAHDQQALDYALYHLRIMTPAHGERSSIAAKGLTGEGYKGHVFWDTEVFLLPFHLFSDPTVARSLLRYRWHNLPGAQEKARRNGWQGALFPWESARSGEEETPEFAAINIRTGLRQKVASAQAEHHLVADIAWAVIQYWQTTGDESFIAHEGMALLLETAKFWISRAVRVNDRLEIHDVIGPDEYTEHVNNNAFTSYMVYYNVQQALSIARQFGCSDDAFIHRAEMFLKELRLPEIQPDGVLPQDDSFMTKPAINLAKYKAAAGKQTILLDYSRAEVNEMQILKQADVVMLNYMLPEQFSSASCLANLQFYEPRTIHDSSLSKAIHGIVAARCGLLTQSYQFWREGTEIDLGADPHSCDDGIHAAATGAIWLGAIQGFA”: the protein production result was “failed”.
The entry for “MAKSWCTVLERPATRAARSLAIKRSEKGEMLVSGLPYLSAVDDVTLMLRDGDLMGSFVVEGINAETVDSFHTVELCNAFSRFIAQQRSDVAYYVHRISVETRPTMPPVGGHPFNEEIDRRWQGYLQTVGLRDRVTVVTLVIRPPRKTTKFLSLFGGRDVHSRHEVEARALRLDQMINTCMVGVGEAGPSRLTVSDGRWLGLLRTLIDGSGGSLIPGTKFLPVADLLASSQITFQGPVFECEGTDPARRRFGTIVSVKDYPAETYPGILDRLNLPYNTVVTQSFTPIDPISAQGKIARVRKQMRAAEDAAISLMAQLEEAEDDVASGRVIFGDHHCSVAVFCDSLKELDGAMAYVTRAMQDAGAAIVRENFSSRVVYFAQHPGNFAYRTRPAMISSQNFAQLCAMHGQSKGSPPDKCPWGDAVTIFPTARGETFRFNFHLPGKPGQRTVGHTLVLGQTGSGKTLGTAFLISQAQRLGARTILFDKDNGFEMAVRAMGGCYSAVRMGDETGFNPMRAEADSRGAAWLMDWLAALAENDGGKLNPVQIQALSDAVQANTTADPRLQNLEQFRSQLRATDDDGDLYNRLGRWDETGQFGWLFGGKGLDPLAFDNRLTAFDLTEIFDNDVVRTAWLSYVFRRVERLVEDEHPTLLVLDEAWKLLDNPYFEARLKDWMLTMRKKNVAVVLLTQRVSHIKNSAAGDAILESAVTRLVYTSSFNTAAELAPLHLTPTESAFLQMSNVDNHLVLLKSGSDSVVLDFDLVAIGKGIDVLGGGRGQKAIAGWRDRPDFQMEMLHLEHHHHHH” is “failed”; for “MVSCSNQQTQTKAITVSDTTLLSAEEFSQKIKKEPNALILDVRTPEEFSEAHIANATNVNWKDNFASGITEVNKNQPVLVYCLSGGRSASASDYLRKNGYTQVYELQGGLLKWQASNFEVVADTVTAAQDSGMTLQQFEALLVTDKYVLIDFYATWCGPCKMMEPALEDIAATMSDKVIVVRIDVDKNEELSKHFEVESLPTVQIYKNKKLVWEDIGYKTKKQLVSQLK” it is “failed”; for “VLKQGYMMKKGHRRKNWTERWFVLKPNIISYYVSEDLKDKKGDILLDENCCVESLPDKDGKKCLFLVKCFDKTFEISASDKKKKQEWIQAIHSTIHLLKLGS” it is “not failed”.
For the sequence “MDLKGGESMVDWKLMQEIIEAPGVSGYEHLGIRDIVVDVLKEVADEVKVDKLGNVIAHFKGSSPRIMVAAHMDKIGVMVNHIDKDGYLHIVPIGGVLPETLVAQRIRFFTEKGERYGVVGVLPPHLRRGQEDKGSKIDWDQIVVDVGASSKEEAEEMGFRVGTVGEFAPNFTRLNEHRFATPYLDDRICLYAMIEAARQLGDHEADIYIVGSVQEEVGLRGARVASYAINPEVGIAMDVTFAKQPHDKGKIVPELGKGPVMDVGPNINPKLRAFADEVAKKYEIPLQVEPSPRPTGTDANVMQINREGVATAVLSIPIRYMHSQVELADARDVDNTIKLAKALLEELKPMDFTP”, the protein production entry was “not failed”.
The entry for “SEDPVFTFGLIADVQYADIEDGENYLRTRRRYYRGSADLLRDAVLQWRRERVQCVVQLGDIIDGHNRRRDASDRALDTVMAELDACSVDVHHVWGNHEFYNFSRPSLLSSRLNSAQRTGTDTGSDLIGDDIYAYEFSPAPNFRFVLLDAYDLSVIGREEESEKHTHSWRILTQHNHNLQDLNLPPVSVGLEQRFVKFNGGFSEQQLQWLDAVLTLSDHKQERVLIFSHLPVHPCAADPICLAWNHEAVLSVLRSHQSVLCFIAGHDHDGGRCTDSSGAQHITLEGVIETPPHSHAFATAYLYEDRMVMKGRGRVEDLTITYS” is “not failed”; for “SETQSFVVSVAGSDRVGIVHDFSWALKNISANVESSRMACLGGDFAMIVLVSLNAKDGKLIQSALESALPGFQISTRRASSVAERHVSPDTREYELYVEGPDSEGIVEAVTAVLAKKGANIVELETETLPAPFAGFTLFRMGSRVAFPFPLYQEVVTALSRVEEEFGVDIDLEEVVEGEDSEEDDDSPNSPVGRH” it is “not failed”.
On to “MALVLTFLGKGGVGRTTVAIAAAKKLAQAGQRVLVLGQDPSLAWQWGITLSETAQGVEANVDGLLLSSTHLLERGWEKLKEVEAQYLRSPALKNIYGEELGVLPGMDEVLVLNALREYELSGRYDVLIYDGPGNLSTLRMLGIPEIASWYWRRFQKVLADSEVVQTLSPFVQPVASAVLSVNWSPDQMLNHPDGPQNLLQQGKAAIADPNRFAAYLVTSTDSLAQKAAQSYWGGAQQVGVTVKGVIQTPLGNGSLDANLFDPLLIAALPSYNQGNWQPLMDALPNPQAMGSAPRPLEIDVNARQVKVFLPGFDKRQVKLTQSGPELTIEAGDQRRNIDLPGNLRGKGVTGAKFQGGYLIVSFLEHHHHHH”, for which the protein production result is given as “failed”.
With “MEVSSFSTVPRYCNSRSFVPELSRFRGFKVHLWDQSLVPLHFSIRKRKNTPRYLISCSQKKDVTVVDGSCMDEIYDKLAERLVPTAAAMFSPNLKRLVGLAGPPGAGKSTVANEVVRRVNKLWPQKAASFDAEVNPPDVAIVLPMDGFHLYRSQLDAMEDPKEAHARRGAPWTFDPALLLNCLKKLKNEGSVYVPSFDHGVGDPVEDDIFVSLQHKVVIVEGNYILLEEGSWKDISDMFDEKWFIDVNLDTAMQRVENRHISTGKPPDVAKWRVDYNDRPNAELIIKSKTNADLLIRSMNI”, the protein production result is “failed”.
The entry for “MGHHHHHHSHMGKGTFVYRTTITSPHEEVWAFFSSPTNLQTLTKIPKVVLDSTSETTQGSEIEMKLFVLGIPFQWKAYIEAYNPPFSFTDVAIKMPFPIVYWRHTHRFTTEGERTVMIDEIQYEIKMANKLVIFFLRRMFRARESALHRYFQS” is “not failed”.
The entry for “MWKHVKQVDPEIYEVLVNELKRQEYGLELIASENFASLAVIETMGSMLTNKYAEGYPKKRYYGGCEWVDRAEERAIERAKRLFGAKFANVQPHSGSQANMAVYLALAQPGDTIMGMSLSHGGHLTHGAPVNFSGKIFKVVPYGVNLETETIDYDEVRRLALEHKPKIIVAGGSAYARIIDFKRFREIADEVGAYLMVDMAHFAGLVAAGIHPNPLEYAHVVTSTTHKTLRGPRGGLILTNDPEIAKAVDKTIFPGIQGGPLMHVIAAKAVCFKEAMTEEFKEYQKQVVKNAKKMAEEFQKRGYRIVSGGTDTHLFLVDLTPKDITGKAAEKALESCGITVNKNTIPNEKRSPFVASGIRIGTPAVTTRGMKEEEMEEIAEMIDLVLSNVIDENGTVKPEVREEVSKKVRELCERFPLYRDKIEGVEI” is “not failed”.
The entry for “MKIPKIYVEGELNDGDRVAIEKDGNAIIFLEKDEEYSGNGKLLYQVIYDDLAKYMSLDTLKKDVLIQYPDKHTLTYLKAGTKLISVPAEGYKVYPIMDFGFRVLKGYRLATLESKKGDLRYVNSPVSGTVIFMNEIPSERANYVFYMLEE” is “not failed”; for “MSVFAGLVEQLADVLQPLFHASAAAAAIVLFTALVRLLVHPLSRASARGQRARARLQPQVAELRKKHGKNPEKLQKALLELHAEEKVSPLSGCLPGLFQLPAFFLLYHLFSNTTIGGEGNELLTHTLFTAPLGDRWADALGDGGPFGTQGLVYLGLFAIVAAVATFNYRRTKRTMAANPLPVGDGEQQVPGLGAINRFMPLMSFFTLFTVAFVPLAAALYVVTSTTWSAVERAALYPVPERSS” it is “failed”.

The values are drawn from a protein production outcome set (Wang et al. 2014).
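Note: failed if final PepcDB status was selected cloned or expressed and not failed if soluble or beyond.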
